In the RNAGym collection of RNA variant scans (doi:10.7554/elife.80360) one finds self-cleavage data, which are given here for 38 variants.

The chains are these.
B1: Hairpin Ribozyme (parent)
chain: GUCCUCUUUCACGUGCGCGUGAAAGAGAGAAGUGAACCAGAGAAACACACGUUGUGGUAUAUUACCUGGUA

Variants of B1 are the subject of the data set. In words: self-cleavage, relative activity (ratio to wild type); higher = more cleavage; co-transcriptional.
In the case of GUCCUCUUUCACGUGCGCAUGAAAGAGAGAAGUGAACCAGAGAAACACACGUUGUGGUAUAUUAGCUGGUA, the self-cleavage amounted to 0.324.
GUCCUCUUUCACGUGCGCGUGAAAGAGAGAAGUGAACCAGAGAAACACACGUUGUGGUAGAAUACCUGGUA: the self-cleavage amounted to 0.203.
For GUCCUCUCUCACGUGCGCGUGAAAGAGAGAAGUGAACCAUAGAAACACACGUUGUGGUAUAUUACCUGGUA, the self-cleavage was found to be 0.164.
With GUCCUCUGUCACGUGCGCGGGAAAGAGAGAAGUGAACCAGAGAAACACACGUUGUGGUAUAUUACCUGGUA the figure was 0.614.
Turning to GUCCUCUUUCACGUGCGCGUGAAAGAGACAAGUGAACCAGAGAAACACACGUUGUGGUAUAUUACCUCGUA, the self-cleavage was determined as 0.124.
Take GUCCUCUUUCACGUGCGCGUGAAAGAGAGAAGUGAACCAGAGAAACACACGUUCUUGUAUAUUACCUGGUA: the self-cleavage was 0.166.
Regarding GUCCUCUUUCACGUGCGCAUGAAAGAGAGAAGUGAACCAGAGAAACACACGUUCUGGUAUAUUACCUGGUA, the self-cleavage was 0.403.
As to GUCCUCUUUCACGUGCGCGUGAAAGAGAGAAGUGAACCAGAGAAACACACGUUGGGGUAUAUUACCUGGUG, the self-cleavage stood at 0.241.
As for GUCCUCUUUCAGGUGCGCGUGAAAAAGAGAAGUGAACCAGAGAAACACACGUUGUGGUAUAUUACCUGGUA, the self-cleavage amounted to 0.524.
For GUCCUCUUUCACGUGCGCGUGAAAGAGAGAAGUGAACCAGAGAAACACACCUUGUGGUAUAUUACCUGGUA, the self-cleavage came out at 0.876.
Regarding GUCCUCUUUCACGUGCACGUGAAGGAGAGAAGUGAACCAGAGAAACACACGUUGUGGUAUAUUACCUGGUA, the self-cleavage was 0.824.
Regarding GUCCUCUUUCACGUGCGCGUGAAAGAGAGAAGUGAACCAGAGAAACACACGGUGUGGUGUAUUACCUGGUA, the self-cleavage turned out to be 0.25.
Regarding GUCCUCUUUCAUGUGCUCGUGAAAGAGAGAAGUGAACCAGAGAAACACACGUUGUGGUAUAUUACCUGGUA, the self-cleavage came to 0.69.
For the variant GUCCUCUUUCACGUCCGCGUGAAAGAGAGAAGUGAACCAGAGAGACACACGUUGUGGUAUAUUACCUGGUA, the self-cleavage worked out at 0.146.
On to GUCGUCUUUCACGUGCGCGUGAAAGAGAGAAGUGAACCAGAGAAACACCCGUUGUGGUAUAUUACCUGGUA, for which the self-cleavage amounted to 0.161.
With GUCCUCUUUCACGUGCGCGUGAACGAGAGAAGUGAACCAGAGAAACACACGUUGUGGUAUAUUCCCUGGUA the figure was 0.192; with GUCCUCUUUCACCUUCGCGUGAAAGAGAGAAGUGAACCAGAGAAACACACGUUGUGGUAUAUUACCUGGUA, 0.695.
As to GUCCACUUUCACGUGCGCGUGAAAGAGAGAAGUGAACCAGAGAAACACACGUUGUGGUAUAAUACCUGGUA, the self-cleavage came to 0.139.
Consider GUCCUCUUGCACGUGCGCGUAAAAGAGAGAAGUGAACCAGAGAAACACACGUUGUGGUAUAUUACCUGGUA, for which the self-cleavage is 0.554.
Take GUCCUCUUUCACGUGCGCGUGAAAGAGAGAAGUGAACCAAAGAAACACACGUUGUGGUAUAUUUCCUGGUA: the self-cleavage came to 0.139.
Turning to GUCCUCUUUCACGUGCGCGUGAAAGAGGGAAGUGAACCAGAGAAACACACGUUGUGGGAUAUUACCUGGUA, the self-cleavage amounted to 0.91.
The value for GUCCUCUUUCACGUGCGCGUGAAAGAGAGAAGUGAACCAGAGAAACACACGUUGUGGUACAUUUCCUGGUA was 0.183; that for GUCCUCUUUCACGUGCGGGUGAAAGAGAGAAGUGAACCAGAGAAACACACGUUGUGGUAUAUUACCAGGUA was 0.229.
For GUCCUCUUUCACGUGCGCGUGAAAGAGAGAAGUGAACCAGAGAAAUACACCUUGUGGUAUAUUACCUGGUA, the self-cleavage came out at 0.176.
For GUCCUCUUUCACGUGCGCGUGAAACAGAGAAGUGAACCAGAGAAACACACGUUGUGGGAUAUUACCUGGUA, the self-cleavage is 0.403.
For the variant GUCCUCUUUCACGUGCGCGUGAGAGAGAGAAGUGAACCAGAGAAACACACGUUCUGGUAUAUUACCUGGUA, the self-cleavage came to 0.363.
With GUCCUCUUUCACGUGCGCGUGAAAGAGAGCAGUGAACCAGAGAAACACACGUUGUGGUAUAUUACCUGGCA the figure was 0.127; with GUCCUCUAUCACGUGCGCGUGAAAGAGAGAAGUGAACCAGAGCAACACACGUUGUGGUAUAUUACCUGGUA, 0.153.
GCCCUCUUUCACGUGCGCGUGAAAGAGAGAAGUGAACCAGAGAAACACACGUUGUGGAAUAUUACCUGGUA: the self-cleavage came to 0.235.
The value for GUCCUCUUUCACGUGCGCGAGAAAGAGAGAAGUGAACCAGAGUAACACACGUUGUGGUAUAUUACCUGGUA was 0.0666.
For GUCCUCUUUCACGUGCGCGUGAAAGAGAGAAGUGAACCAGAGAAACACACGUUGUGGUUUAUUACUUGGUA, the self-cleavage turned out to be 0.191.
As for GUACUCUUUCACGUGCGCGUGAAAGAGAGAAGUGAACCAGAGAAACACACGUUGCGGUAUAUUACCUGGUA, the self-cleavage stood at 0.261.
For the variant GUCUUCUUUCACGUGCGCGUGAGAGAGAGAAGUGAACCAGAGAAACACACGUUGUGGUAUAUUACCUGGUA, the self-cleavage came to 0.299.
The value for GUCCUCUUUCACGUGUGCGCGAAAGAGAGAAGUGAACCAGAGAAACACACGUUGUGGUAUAUUACCUGGUA was 0.86.
On to GUCCUCUUUCACGUGCGCGUGAAAGAGGGAAGUGAACCAGAGAAACACACGUUGUGCUAUAUUACCUGGUA, for which the self-cleavage was determined as 0.263.
Consider GUCCUCUUUAACGUGCGCGUGAAAGAGAGAAGUGAACCAGGGAAACACACGUUGUGGUAUAUUACCUGGUA, for which the self-cleavage turned out to be 0.694.
Turning to GUCCUCAUUCACGUGCGCGUGAAAGAGAGAAGUGAACCAGAGAAACACACGUUGUGGUAUACUACCUGGUA, the self-cleavage was found to be 0.222.
The value for GUCCUCUUUCACGUGCUCGUGAAAGAGAGAAGUUAACCAGAGAAACACACGUUGUGGUAUAUUACCUGGUA was 1.29.
